# Patent US20210403538A1
# Columns and labels:
# [1] = target: Jurkat-EBOV GPCL (Zaire ebolavirus (EBOV), Makona)
# [2] = target: Jurkat-EBOV GP (Zaire ebolavirus (EBOV), Makona)
# Chain of rEBOV-520 LALA (antibody) (VH): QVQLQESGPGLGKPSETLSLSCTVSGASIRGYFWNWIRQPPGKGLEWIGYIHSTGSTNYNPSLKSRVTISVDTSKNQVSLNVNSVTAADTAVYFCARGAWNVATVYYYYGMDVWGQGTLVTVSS
# Chain of rEBOV-520 LALA (antibody) (VL): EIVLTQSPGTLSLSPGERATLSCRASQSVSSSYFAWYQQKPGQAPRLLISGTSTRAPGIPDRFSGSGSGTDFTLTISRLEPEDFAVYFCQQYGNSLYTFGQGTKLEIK
Substance,fold decrease in binding [1],fold increase in binding [2]
MR72 (antibody),2.8 fold,–
rEBOV-520 LALA (antibody),–,< 4.6 fold
